Experiments:
Conditions in all cases: Homo sapiens; call rule not given here
[1] = tested on: Nc1ncnc2c1ncn2CCOCP(=O)(O)O; assay: (§1) Ratio of Kcat to Km for recombinant AK2 (unknown origin)
[2] = tested on: Nc1ncnc2c1ncn2-c1ccc(COCP(=O)(O)O)o1; assay: as §1
[3] = tested on: Nc1ncnc2c1ncn2-c1ccc(CO)o1; assay: as §1
[4] = tested on: Nc1ncnc2c1ncn2[C@@H]1O[C@H](COP(=O)(O)O)[C@@H](O)[C@H]1O; assay: as §1
[5] = tested on: C[C@H](Cn1cnc2c(N)ncnc21)OCP(=O)(O)O; assay: as §1
[6] = tested on: Nc1ncnc2c1ncn2[C@H]1C[C@H](O)[C@@H](COP(=O)(O)O)O1; assay: as §1
[7] = tested on: Nc1ncnc2c1ncn2CCOCP(=O)(O)O; assay: (§2) Activity of recombinant AK2 (unknown origin) assessed as ADP formation by spectroscopic pyruvate kinase/lactate dehydrogenase coupled assay
[8] = tested on: Nc1ncnc2c1ncn2-c1ccc(COCP(=O)(O)O)o1; assay: as §2
[9] = tested on: Nc1ncnc2c1ncn2-c1ccc(CO)o1; assay: as §2
[10] = tested on: Nc1ncnc2c1ncn2[C@@H]1O[C@H](COP(=O)(O)O)[C@@H](O)[C@H]1O; assay: as §2
[11] = tested on: C[C@H](Cn1cnc2c(N)ncnc21)OCP(=O)(O)O; assay: as §2
[12] = tested on: Nc1ncnc2c1ncn2[C@H]1C[C@H](O)[C@@H](COP(=O)(O)O)O1; assay: as §2

Adenylate kinase 2, mitochondrial (Homo sapiens) (from UniProt P54819)
kcat/Km [1]: 250 ×10⁶ /M/s | kcat/Km [2]: 0.025 ×10⁶ /M/s | kcat/Km [3]: Not Active | kcat/Km [4]: 0.21 ×10⁶ /M/s | kcat/Km [5]: 800 M⁻¹ s⁻¹ | kcat/Km [6]: 0.5 ×10⁶ /M/s | Km [7]: 6000 µM | kcat [7]: 1.5 s⁻¹ | Km [8]: 420 µM | kcat [8]: 1.06 s⁻¹ | Km [9]: Not Active | kcat [9]: Not Active | Km [10]: 380 µM | kcat [10]: 80 s⁻¹ | Km [11]: 3000 µM | kcat [11]: 2.4 s⁻¹ | Km [12]: 210 µM | kcat [12]: 110 s⁻¹

Source: ChEMBL document CHEMBL3352481, “Synthesis of {[5-(adenin-9-yl)-2-furyl]methoxy}methyl phosphonic acid and evaluations against human adenylate kinases” (Bioorg Med Chem Lett, 2014)
